Laboratory results: article PMC8595662 (Nature Communications, 2021)

What was measured:
[1] = target: T1, EBV gH/gL (gH 19-679 linked to gL 24-137 by (G4S)3) (Epstein-Barr virus (human …)); test: SPR; conditions: both partners purified
T1 construct: also called gH/gL WT; source: 293F, transfected, purified (Ni-NTA, SEC); not shown: HIS Tag, C-terminal, kept

[2] = target: T2, EBV gH/gL on the surface of CHO-K1 effector cells (Epstein-Barr virus, UniProt P03231;P03212); test: flow cytometry on cells; conditions: one partner purified
T2 construct: also called gH/gL and gB fusion machinery

Binder | koff [1] [s⁻¹] | kon [1] [M⁻¹ s⁻¹] | binding result [2]
AMMO1 (antibody, V domains shown) VH: QVQLVQSGADVKKPGASVKVSCKASGYTFIHFGISWVRQAPGQGLEWMGWIDTNNGNTNYAQSLQGRVTMTTDTSTGTAYMELRSLSTDDTAVYFCARALEMGHRSGFPFDYWGQGVLVTVSP VL: SYELTQPPSVSVAPGQRATITCGGHNIGAKNVHWYQQKPGQAPVLVIQYDSDRPSGIPERFSGSNSGSTATLTISRVEAGDEADYYCQVWDSGRGHPLYVFGGGTKVTVL | 8.5e-05 | 577000 | –
AMMO1, human gH/gL-specific neutralizing antibody (recombinant IgG1) (antibody, V domains shown) VH: QVQLVQSGADVKKPGASVKVSCKASGYTFIHFGISWVRQAPGQGLEWMGWIDTNNGNTNYAQSLQGRVTMTTDTSTGTAYMELRSLSTDDTAVYFCARALEMGHRSGFPFDYWGQGVLVTVSP VL: SYELTQPPSVSVAPGQRATITCGGHNIGAKNVHWYQQKPGQAPVLVIQYDSDRPSGIPERFSGSNSGSTATLTISRVEAGDEADYYCQVWDSGRGHPLYVFGGGTKVTVL | – | – | binds
